Data on 2 molecules can be found in patent publication US20050059058A1 (CASE WESTERN RESERVE UNIVERSITY, published 2005).

One assay deals with T1, ZipA protein of E. coli (Escherichia coli, UniProt B1IX59 1-328).
T1 construct: Complete ZipA as present in the insoluble (P200) fraction of E. coli, or overproduced from the zipA ORF in a T7 system; on blots after boiling in SDS; also called 50 Kd band
Put plainly: affinity blotting (far Western) with 32P-labelled probe. From the text:
To address the possibility that other proteins interact with FtsZ, the present inventors searched for proteins with affinity to FtsZ. In one approach, a FtsZ derivative (HFKT-FtsZ) was made which carries at the N-terminus a histidine-tag (the his-tag is useful for purification by metal chelate affinity chromatography such as that described in U.S. Pat. No. 5,310,663, hereby incorporated by reference) as well s a substrate site for heart muscle kinase. The purified protein was radiolabeled in vitro by incubation with kinase and [γ³²P]ATP and used as a probe on Western blots.
After the addition of one volume of electrophoresis sample buffer (125 mM Tris.Cl, 4% SDS, 20% glycerol, 1.4 M (β-mercaptoethanol, pH=6.6), samples (e.g., whole cells boiled in sample buffer, or fractionated cells) were held in a boiling water bath for 5 min., and subjected to conventional SDS-PAGE on 0.75 mm thick 10% T/2.7% C gels. Electrophoretic transfer to nitrocellulose filter (0.2μ) was performed in a Genie blotter (Idea Scientific Co.) with regular Towbin buffer (25 mM Tris.Cl, 192 mM glycine, 20% methanol, pH 8.3) at 12 V for 30 min. To monitor the transfer and to visualize the molecular weight standards, filters were treated with the reversible stain Ponceau S (0.1% in 5% acetic acid) for 1 min. Filters were next destained in 10 mM Tris-Cl, rinsed in water, and allowed to dry for 15 min in air.

The target of assay [1] is T2, FtsZ protein (native, unlabelled) (Escherichia coli, UniProt P0A9A6 1-383).
T2 construct: also called native FtsZ; immobilized FtsZ
T2 sequence (looked up): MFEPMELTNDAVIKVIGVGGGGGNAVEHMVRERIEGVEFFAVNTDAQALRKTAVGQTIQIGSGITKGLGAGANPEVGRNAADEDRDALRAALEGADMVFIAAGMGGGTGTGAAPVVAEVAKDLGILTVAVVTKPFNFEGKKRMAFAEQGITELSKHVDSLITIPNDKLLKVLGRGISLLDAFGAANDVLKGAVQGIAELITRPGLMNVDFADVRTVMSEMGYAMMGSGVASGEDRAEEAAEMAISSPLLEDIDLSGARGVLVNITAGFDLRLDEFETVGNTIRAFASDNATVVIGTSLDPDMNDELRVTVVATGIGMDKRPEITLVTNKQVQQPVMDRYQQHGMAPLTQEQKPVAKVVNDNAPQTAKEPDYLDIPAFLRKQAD
Put plainly: assay not described.

B1: HFKT-MinE fusion protein (15.9 kD, encoded by pDB311), 32P-labelled (other, Escherichia coli)
chain: MGHHHHHHHHHHSSGHIEGRHMDYKDDDDKARRASVEFHMASMTGGQQMGRGSDFFLSRKKNTANIAKERLQIIVAERRRSDAEPHYLPQLRKDILEVICKYVQIDPEMVTVQLEQKDGDISILELNVTLPEAEELK
modifications: 32P-phosphorylated in vitro by bovine heart muscle kinase at the kinase substrate site of the HFKT tag
notes: range 5-88; Negative control probe; also called HKFT-MinE; radiolabelled HKFT-MinE
As to B1, in the assay with ZipA protein of E. coli, the binding result was “no binding”.

B2: soluble fragment of ZipA (the 39-328 peptide) (other)
chain: not shown
notes: also called portion or fragment of the ZipA protein
Consider B2, for which the binding result in assay [1] is recorded as “binds”.
